According to the Immune Epitope Database (IEDB):

Assays:
Assay in all cases: IEDB peptide-MHC binding, purified MHC/direct/fluorescence; filed as Kd, often an IC50 or EC50 that approximates it; ≥ and ≤ were set here for values at or beyond the usual limits of such assays
HLA-B*27:05 = target: HLA-B*27:05
HLA-A*69:01 = target: HLA-A*69:01
HLA-A*02:01 = target: HLA-A*02:01
HLA-B*44:02 = target: HLA-B*44:02
HLA-A*01:01 = target: HLA-A*01:01
HLA-A*31:01 = target: HLA-A*31:01
HLA-B*58:01 = target: HLA-B*58:01
HLA-B*15:01 = target: HLA-B*15:01
HLA-B*08:02 = target: HLA-B*08:02
HLA-B*40:01 = target: HLA-B*40:01
HLA-B*07:02 = target: HLA-B*07:02
HLA-A*11:01 = target: HLA-A*11:01
HLA-B*15:09 = target: HLA-B*15:09
HLA-A*24:02 = target: HLA-A*24:02
HLA-A*03:01 = target: HLA-A*03:01
HLA-A*24:03 = target: HLA-A*24:03
HLA-A*02:19 = target: HLA-A*02:19
HLA-B*27:03 = target: HLA-B*27:03
HLA-B*51:01 = target: HLA-B*51:01
HLA-A*02:12 = target: HLA-A*02:12
HLA-B*39:01 = details: source organism: Vibrio parahaemolyticus AQ3810
HLA-B*57:01 = target: HLA-B*57:01
HLA-A*02:11 = target: HLA-A*02:11
HLA-B*46:01 = target: HLA-B*46:01
HLA-A*02:03 = target: HLA-A*02:03
HLA-B*18:01 = target: HLA-B*18:01
HLA-A*02:16 = target: HLA-A*02:16
HLA-A*26:01 = target: HLA-A*26:01
HLA-B*08:01 = target: HLA-B*08:01
HLA-B*73:01 = target: HLA-B*73:01
HLA-A*30:01 = target: HLA-A*30:01
HLA-A*68:02 = details: source organism: Salmonella enterica subsp. enterica serovar Berta
HLA-B*15:17 = details: source organism: Salmonella enterica subsp. enterica serovar Berta
HLA-A*23:01 = details: source organism: Salmonella enterica subsp. enterica serovar Berta
HLA-A*29:02 = details: source organism: Salmonella enterica subsp. enterica serovar Berta
HLA-C*05:01 = target: HLA-C*05:01
HLA-C*12:03 = details: source organism: Toxoplasma gondii ME49
HLA-B*48:01 = details: source organism: Brucella suis
[1] = source organism: Giardia lamblia ATCC 50803
[2] = source organism: Vibrio parahaemolyticus AQ3810
[3] = source organism: Vibrio parahaemolyticus
[4] = source organism: Salmonella enterica subsp. enterica serovar Berta
[5] = source organism: Influenza A virus (A/duck/Mongolia/47/2001(H7N1))
[6] = source organism: Influenza A virus(A/swine/Henan/3/2004(H9N2))
[7] = source organism: Toxoplasma gondii
[8] = source organism: Salmonella enterica subsp. enterica serovar Typhimurium
[9] = source organism: Salmonella enterica
[10] = source organism: Salmonella enterica subsp. enterica serovar Typhimurium str. LT2

DEKPKVMEG
Kd (HLA-B*27:05; [1]): ≥ 20 µM | Kd (HLA-A*69:01; [1]): ≥ 20 µM | Kd (HLA-A*02:01; [1]): ≥ 20 µM | Kd (HLA-B*44:02; [1]): ≥ 20 µM | Kd (HLA-A*01:01; [1]): ≥ 20 µM | Kd (HLA-A*31:01; [1]): ≥ 20 µM | Kd (HLA-B*58:01; [1]): ≥ 20 µM | Kd (HLA-B*15:01; [1]): ≥ 20 µM | Kd (HLA-B*08:02; [1]): ≥ 20 µM | Kd (HLA-B*40:01; [1]): ≥ 20 µM | Kd (HLA-B*07:02; [1]): ≥ 20 µM | Kd (HLA-A*11:01; [1]): ≥ 20 µM | Kd (HLA-B*15:09; [1]): ≥ 20 µM | Kd (HLA-A*24:02; [1]): ≥ 20 µM | Kd (HLA-A*03:01; [1]): ≥ 20 µM

EPFLVQFWI
Kd (HLA-A*24:03; [2]): ≥ 20 µM | Kd (HLA-A*02:19; [2]): ≥ 20 µM | Kd (HLA-B*27:03; [2]): ≥ 20 µM | Kd (HLA-B*51:01; [2]): 0.193 µM | Kd (HLA-A*02:01; [2]): ≥ 20 µM | Kd (HLA-A*02:12; [2]): ≥ 20 µM | Kd (HLA-B*39:01): ≥ 20 µM | Kd (HLA-B*57:01; [2]): ≥ 20 µM | Kd (HLA-B*15:01; [2]): ≥ 20 µM | Kd (HLA-A*02:11; [2]): ≥ 20 µM | Kd (HLA-B*46:01; [2]): ≥ 20 µM | Kd (HLA-A*02:03; [2]): ≥ 20 µM | Kd (HLA-B*18:01; [2]): ≥ 20 µM | Kd (HLA-A*02:16; [2]): ≥ 20 µM | Kd (HLA-A*26:01; [2]): ≥ 20 µM | Kd (HLA-A*03:01; [2]): ≥ 20 µM

GRNSRFPDK
Kd (HLA-B*27:05; [3]): 1.04 µM | Kd (HLA-A*69:01; [3]): ≥ 20 µM | Kd (HLA-A*02:01; [3]): ≥ 20 µM | Kd (HLA-B*44:02; [3]): ≥ 20 µM | Kd (HLA-A*01:01; [3]): ≥ 20 µM | Kd (HLA-A*31:01; [3]): ≥ 20 µM | Kd (HLA-B*08:01; [3]): ≥ 20 µM | Kd (HLA-B*73:01; [2]): ≥ 20 µM | Kd (HLA-B*58:01; [3]): ≥ 20 µM | Kd (HLA-B*15:01; [3]): ≥ 20 µM | Kd (HLA-A*30:01; [3]): ≥ 5 µM | Kd (HLA-B*40:01; [3]): ≥ 20 µM | Kd (HLA-A*26:01; [3]): ≥ 20 µM | Kd (HLA-B*07:02; [3]): ≥ 20 µM | Kd (HLA-A*03:01; [3]): ≥ 20 µM

HQDDGQPRL
Kd (HLA-A*24:03; [4]): ≥ 20 µM | Kd (HLA-A*02:19; [4]): ≥ 20 µM | Kd (HLA-B*27:03; [4]): ≥ 20 µM | Kd (HLA-B*51:01; [4]): ≥ 20 µM | Kd (HLA-A*69:01; [4]): ≥ 20 µM | Kd (HLA-A*02:01; [4]): ≥ 20 µM | Kd (HLA-A*02:12; [4]): ≥ 20 µM | Kd (HLA-A*68:02): ≥ 20 µM | Kd (HLA-B*57:01; [4]): ≥ 20 µM | Kd (HLA-B*15:01; [4]): ≥ 20 µM | Kd (HLA-A*02:11; [4]): ≥ 20 µM | Kd (HLA-B*46:01; [4]): ≥ 20 µM | Kd (HLA-A*02:03; [4]): ≥ 20 µM | Kd (HLA-B*18:01; [4]): ≥ 20 µM | Kd (HLA-B*15:17): ≥ 20 µM | Kd (HLA-A*02:16; [4]): ≥ 20 µM | Kd (HLA-A*23:01): ≥ 20 µM | Kd (HLA-A*26:01; [4]): ≥ 20 µM | Kd (HLA-A*29:02): ≥ 20 µM | Kd (HLA-A*03:01; [4]): ≥ 20 µM

NESGRLIDF
Kd (HLA-B*27:05; [5]): ≥ 20 µM | Kd (HLA-A*69:01; [5]): ≥ 20 µM | Kd (HLA-A*02:01; [5]): ≥ 20 µM | Kd (HLA-A*01:01; [5]): ≥ 20 µM | Kd (HLA-A*31:01; [5]): ≥ 20 µM | Kd (HLA-B*08:01; [5]): ≥ 20 µM | Kd (HLA-B*58:01; [5]): ≥ 20 µM | Kd (HLA-B*15:01; [5]): ≥ 20 µM | Kd (HLA-B*46:01; [5]): ≥ 20 µM | Kd (HLA-B*40:01; source organism: Influenza A virus (A/Puerto Rico/8/34/Mount Sinai(H1N1))): ≥ 5 µM | Kd (HLA-A*26:01; [6]): ≥ 20 µM | Kd (HLA-B*07:02; [5]): ≥ 20 µM | Kd (HLA-A*11:01; [5]): ≥ 20 µM | Kd (HLA-B*15:09; [6]): ≥ 20 µM | Kd (HLA-A*24:02; [5]): ≥ 20 µM | Kd (HLA-A*03:01; [5]): ≥ 20 µM

QYDVPMVSF
Kd (HLA-A*24:03; source organism: Mycobacterium tuberculosis): 0.0184 µM | Kd (HLA-C*05:01; source organism: Mycobacterium tuberculosis H37Rv): ≥ 20 µM

RATSHVPEF
Kd (HLA-B*57:01; [7]): ≥ 20 µM | Kd (HLA-C*05:01; source organism: Toxoplasma gondii ME49): ≥ 20 µM | Kd (HLA-B*58:01; [7]): ≥ 20 µM | Kd (HLA-C*12:03): 0.148 µM

RKAGVNQAK
Kd (HLA-B*27:05; [8]): 0.224 µM | Kd (HLA-A*69:01; [9]): ≥ 20 µM | Kd (HLA-A*02:01; [9]): ≥ 20 µM | Kd (HLA-B*44:02; [9]): ≥ 20 µM | Kd (HLA-A*01:01; [9]): ≥ 20 µM | Kd (HLA-A*31:01; [9]): ≥ 20 µM | Kd (HLA-B*08:01; [9]): ≥ 20 µM | Kd (HLA-B*73:01; [10]): ≥ 20 µM | Kd (HLA-B*58:01; [9]): ≥ 20 µM | Kd (HLA-B*15:01; [9]): ≥ 20 µM | Kd (HLA-A*30:01; [8]): 12.9 µM | Kd (HLA-B*40:01; [9]): ≥ 20 µM | Kd (HLA-A*26:01; [9]): ≥ 20 µM | Kd (HLA-B*07:02; [9]): ≥ 20 µM | Kd (HLA-A*03:01; [8]): ≥ 20 µM

RRTKLPLTK
Kd (HLA-B*27:05; source organism: Brucella suis): 0.0792 µM | Kd (HLA-B*73:01; source organism: Brucella suis 1330): ≥ 20 µM | Kd (HLA-B*48:01): ≥ 20 µM

SLDQSVVEL
Kd (HLA-C*05:01; source organism: Chlamydia trachomatis): 0.051 µM

YSDIFNNVL
Kd (HLA-B*27:05; [8]): ≥ 20 µM | Kd (HLA-B*44:02; [8]): ≥ 20 µM | Kd (HLA-A*01:01; [8]): 0.075 µM | Kd (HLA-A*31:01; [8]): ≥ 20 µM | Kd (HLA-C*05:01; [10]): 0.005 µM | Kd (HLA-B*08:01; [10]): ≥ 20 µM | Kd (HLA-B*58:01; [8]): ≥ 20 µM | Kd (HLA-B*15:01; [8]): ≥ 20 µM | Kd (HLA-B*08:02; [10]): ≥ 20 µM | Kd (HLA-B*40:01; [8]): 0.396 µM | Kd (HLA-A*26:01; [10]): ≥ 20 µM | Kd (HLA-B*07:02; [8]): ≥ 20 µM | Kd (HLA-A*11:01; [8]): ≥ 20 µM | Kd (HLA-A*24:02; [8]): ≥ 20 µM | Kd (HLA-A*03:01; [8]): ≥ 20 µM
